Ten molecules from patent publication US20080176792A1, “VEGFR-1 TARGETING PEPTIDES” (priority 2000, published 2008) can be followed below.

Bridge positions count the residues as written; N and C are the ends. Ends that are not written are not given here.

One assay concerns RT4 tumor cells. The assay can be described thus: Phage attachment to subconfluent cell monolayer, with peptide competition. It is filed as cell-based, human. The conditions noted are these: increasing amounts of peptide.
For a further assay, the system named is KS1767 cells. The assay can be described thus: BRASIL binding of phage to KS1767 cells, with synthetic peptide competition. It is filed as cell-based. Conditions: for effect of soluble peptide on RGD-4C phage binding to KS1767 cells: competition experiment. The procedure: FIG. 2A. BRASIL method optimization. A single-cell suspension of Kaposi sarcoma-derived cells (KS1767) was incubated with increasing titers of a phage displaying an alpha v integrin-binding motif (RGD-4C phage) or a control phage with no peptide insert (Fd phage). KS1767 cells were chosen because they express high levels of alpha v integrins. Cells and phage were incubated for 4 hours on ice (to prevent phage internalization) and centrifuged for 10 minutes at 10,000 g. The phage bound to the KS1767 cells were recovered by infection of a host E. coli, and plated in LB/tet agar plates at 37° C. overnight. Finally, the phage transducing units were counted. Extremely low backgrounds were observed. Under non-saturated conditions, a conservative mean estimate of the enrichment of RGD-4C phage in relation to Fd phage is 500-1000. This experiment was repeated three times with similar results. Mean and standard deviation are shown.
Cells were harvested with phosphate-buffered saline (PBS) and 5 mM EDTA, washed with MEM, and re-suspended in MEM containing 1% BSA at 10^6 cells/ml and incubated with phage in 1.5 ml Eppendorf tubes. After 4 h, 100 μl of the cell-phage suspension was gently transferred to the top of a non-miscible organic lower phase (200 μl in a 400 μl-Eppendorf tube) and centrifuged at 10,000 g for 10 minutes. The preferred organic phase combination consisted of a mixture of dibutyl phthalate:cyclohexane (9:1 [v/v]; ρ=1.03 g/ml). BRASIL has been attempted with other phthalate admixtures with the appropriate density (for example, dibutyl phthalate:diisooctyl phthalate; 4:6 [v/v]) with similar results. The tube was snap frozen in liquid nitrogen, the bottom of the tube sliced off, and the cell-phage pellet transferred to a new tube. Bound phage were rescued by infection with 200 μl of E. coli K91kan host bacteria in log phase. To evaluate binding specificity, phage and cells were incubated with the cognate or control synthetic peptides for competition assays.
KS1767 cells were detached with cold EDTA and re-suspended in MEM containing 1% BSA. […] The cell suspension was incubated with RGD-4C phage or a control phage with no peptide insert (fd-tet phage). Increasing amounts of either phage were added to the cells in suspension and the cell-phage admixture was incubated for 4 hr on ice. BRASIL was performed on ice to minimize post-binding events such as ligand-receptor internalization by the target cells. The cells were separated by centrifugation through the organic phase as described above. Bound phage were recovered and phage TU were counted. To compare BRASIL to conventional cell panning methods that require an additional washing step, 200 μl of the cell suspension were incubated with phage for 4 hr on ice. […]

The next assay concerns the target T1, human VEGFR-1 (Homo sapiens, UniProt P17948).
T1 construct: purchased Oncogene Research Products, Boston, Mass
The assay can be described thus: Phage binding to immobilized purified receptor, with competition. Conditions: for blocking of clone 19 phage binding to VEGF-R1 by competitor: competitor pre-incubated with immobilized receptor, PDGF-BB up to 200 ng/ml. Here is the method: (§1) Human VEGFR-1, human VEGFR-2, rat NRP-1, and rat NRP-2 (1 μg in 50 μl of PBS) were immobilized on microtiter well plates overnight at 4° C. The wells were washed twice with PBS, blocked with PBS containing 3% BSA for 2 h at room temperature, and then incubated with 10^9 TU of either […] (SEQ ID NO:6) phage, […] (SEQ ID NO:11) phage, or fd-tet phage in 50 μl of PBS/1.5% BSA. After 1 hr at room temperature, wells were washed nine times with PBS and phage were recovered by bacterial infection. Serial dilutions were plated onto Luria-Bertani (LB) medium supplemented with tetracycline. VEGF165, PDGF-BB, or synthetic peptides were used at the indicated concentrations and pre-incubated with the immobilized proteins to evaluate competitive inhibition of phage binding. ELISA with either polyclonal anti-VEGFR-1 serum or anti-human IgG (VEGFR-2, NRP-1, and NRP-2) confirmed the presence and concentration of the immobilized receptors on the microtiter plates. […] Following three washes, VEGF165 binding was evaluated by ELISA by using anti-VEGF specific antibodies (data not shown).

Another assay has as its target T2, rat NRP-1 (Rattus norvegicus, UniProt Q9QWJ9).
T2 construct: purchased R&D Systems Minneapolis, Minn
Described as above. Conditions: competitor pre-incubated with immobilized receptor; PDGF-BB up to 200 ng/ml. The procedure: as §1

The next assay has as its system porcine bladder mucosa. The experiment in a line: Dot blot chamber assay after removal of the GAG-layer. It is filed as cell-based. The conditions noted are these: 0.1M HCl for 2 min; relative to untreated mucosa set to 1. The procedure:
FIG. 10. Influence of the GAG-layer on phage binding. In the dot blot chamber assay portions of a porcine bladder mucosa were treated with 0.1M HCl for 2 min prior to remove the GAG-layer. Binding to treated surface is given relative to untreated surface, that was set as 1. Bound phage were detected after intensive washing by infection with log phase K91 bacteria and plating of serial dilutions.
Removal of the glucosaminoglycan- (GAG-) layer on intact mucosa samples was performed as a dot blot chamber assay. Half of the wells were incubated with 200 μl 0.1M HCl per well for 2 min, intensely rinsed with blocking solution and both parts blocked as before. Results are given relative to fd-tet phage to untreated mucosa, that was set to 1.
Using the same assay the influence of the glucosaminoglycan (GAG) layer on binding of several phage to intact mucosa was examined. The GAG-layer was removed as described above. Half of the mucosa of human ureter and porcine bladder specimens were treated inside the dot blot chamber with […] for 2 min, extensively washed and the binding assay performed as before.

Assay [1] addresses alpha v integrins on KS1767 cells (Kaposi sarcoma-derived cell line) (UniProt P06756). The experiment in a line: BRASIL, phage on KS1767 cells in suspension, transducing units recovered.
Assay [2] shares this target. The assay can be described thus: BRASIL on KS1767 cells, competition with peptide in solution.
A further assay concerns the target T3, recombinant rat NRP-1/Fc (rat; human, UniProt Q9QWJ9 22-854, limits assumed).
T3 construct: Bought receptor/Fc chimera; also called rat Neuropilin-1; neuropilin-1; not shown: Fc region of human IgG1
T3 sequence (looked up): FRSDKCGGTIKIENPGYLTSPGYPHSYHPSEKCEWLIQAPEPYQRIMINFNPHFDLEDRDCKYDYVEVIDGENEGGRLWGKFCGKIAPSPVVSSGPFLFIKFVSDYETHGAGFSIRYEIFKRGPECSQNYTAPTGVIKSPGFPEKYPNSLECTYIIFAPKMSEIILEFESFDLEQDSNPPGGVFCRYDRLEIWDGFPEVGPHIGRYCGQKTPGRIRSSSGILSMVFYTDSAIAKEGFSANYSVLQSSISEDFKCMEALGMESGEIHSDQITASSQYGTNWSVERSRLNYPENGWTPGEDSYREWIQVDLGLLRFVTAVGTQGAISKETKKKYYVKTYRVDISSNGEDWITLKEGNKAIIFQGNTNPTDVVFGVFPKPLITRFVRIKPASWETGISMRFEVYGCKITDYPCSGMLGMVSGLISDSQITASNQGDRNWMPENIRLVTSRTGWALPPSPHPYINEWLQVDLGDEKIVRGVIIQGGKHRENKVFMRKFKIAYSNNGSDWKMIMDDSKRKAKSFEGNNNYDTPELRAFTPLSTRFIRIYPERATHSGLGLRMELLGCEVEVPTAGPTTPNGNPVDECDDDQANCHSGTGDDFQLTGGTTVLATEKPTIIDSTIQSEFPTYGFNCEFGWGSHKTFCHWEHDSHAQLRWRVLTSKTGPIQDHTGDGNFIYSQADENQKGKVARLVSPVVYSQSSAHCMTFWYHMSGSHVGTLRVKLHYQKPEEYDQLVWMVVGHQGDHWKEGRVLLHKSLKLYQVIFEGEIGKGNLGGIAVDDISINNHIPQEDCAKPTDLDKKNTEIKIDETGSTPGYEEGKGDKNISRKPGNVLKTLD
The assay can be described thus: competition of clone-19 phage binding to immobilized NRP-1 (not shown). Here is the method:
(§2) Human VEGFR-1, human VEGFR-2, rat NRP-1, and rat NRP-2 (1 μg in 50 μl of PBS) were immobilized on microtiter well plates overnight at 4° C. The wells were washed twice with PBS, blocked with PBS containing 3% BSA for 2 h at room temperature, and then incubated with 10⁹ TU of either […] […] (SEQ ID NO:11) phage, or fd-tet phage in 50 μl of PBS/1.5% BSA. After 1 hr at room temperature, wells were washed nine times with PBS and phage were recovered by bacterial infection. Serial dilutions were plated onto Luria-Bertani (LB) medium supplemented with tetracycline. VEGF₁₆₅, PDGF-BB, or synthetic peptides were used at the indicated concentrations and pre-incubated with the immobilized proteins to evaluate competitive inhibition of phage binding.

Assay [3] deals with T4, recombinant human VEGFR-1 (human, UniProt P17948 27-758, limits assumed).
T4 construct: Bought; immobilized on microtiter wells (1 ug in 50 ul PBS); also called Flt1
T4 sequence (P17948 27-758 limits assumed): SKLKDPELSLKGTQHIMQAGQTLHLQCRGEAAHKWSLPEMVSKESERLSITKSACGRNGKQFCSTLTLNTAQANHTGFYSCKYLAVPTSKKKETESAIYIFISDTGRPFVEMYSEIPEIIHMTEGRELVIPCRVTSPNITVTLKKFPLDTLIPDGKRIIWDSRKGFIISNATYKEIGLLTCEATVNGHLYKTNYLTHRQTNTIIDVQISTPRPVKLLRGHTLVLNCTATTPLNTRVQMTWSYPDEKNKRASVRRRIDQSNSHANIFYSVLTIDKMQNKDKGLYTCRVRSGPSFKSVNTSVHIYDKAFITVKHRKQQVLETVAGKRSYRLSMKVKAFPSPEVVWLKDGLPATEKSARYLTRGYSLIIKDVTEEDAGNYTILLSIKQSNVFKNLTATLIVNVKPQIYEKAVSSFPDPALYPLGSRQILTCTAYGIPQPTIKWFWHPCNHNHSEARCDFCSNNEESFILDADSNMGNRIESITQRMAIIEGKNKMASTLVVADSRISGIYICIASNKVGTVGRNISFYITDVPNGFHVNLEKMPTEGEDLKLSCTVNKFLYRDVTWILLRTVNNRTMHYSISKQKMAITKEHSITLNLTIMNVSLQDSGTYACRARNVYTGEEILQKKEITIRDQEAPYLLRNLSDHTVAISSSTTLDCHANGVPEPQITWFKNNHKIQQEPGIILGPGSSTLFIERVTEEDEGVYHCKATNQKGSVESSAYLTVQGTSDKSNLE
The assay can be described thus: competition of clone-19 phage binding to immobilized receptors; reference is NRP-1 (not shown). The procedure:
as §2

Chain of alpha v integrins on KS1767 cells (Kaposi sarcoma-derived cell line) (P06756 31-1048): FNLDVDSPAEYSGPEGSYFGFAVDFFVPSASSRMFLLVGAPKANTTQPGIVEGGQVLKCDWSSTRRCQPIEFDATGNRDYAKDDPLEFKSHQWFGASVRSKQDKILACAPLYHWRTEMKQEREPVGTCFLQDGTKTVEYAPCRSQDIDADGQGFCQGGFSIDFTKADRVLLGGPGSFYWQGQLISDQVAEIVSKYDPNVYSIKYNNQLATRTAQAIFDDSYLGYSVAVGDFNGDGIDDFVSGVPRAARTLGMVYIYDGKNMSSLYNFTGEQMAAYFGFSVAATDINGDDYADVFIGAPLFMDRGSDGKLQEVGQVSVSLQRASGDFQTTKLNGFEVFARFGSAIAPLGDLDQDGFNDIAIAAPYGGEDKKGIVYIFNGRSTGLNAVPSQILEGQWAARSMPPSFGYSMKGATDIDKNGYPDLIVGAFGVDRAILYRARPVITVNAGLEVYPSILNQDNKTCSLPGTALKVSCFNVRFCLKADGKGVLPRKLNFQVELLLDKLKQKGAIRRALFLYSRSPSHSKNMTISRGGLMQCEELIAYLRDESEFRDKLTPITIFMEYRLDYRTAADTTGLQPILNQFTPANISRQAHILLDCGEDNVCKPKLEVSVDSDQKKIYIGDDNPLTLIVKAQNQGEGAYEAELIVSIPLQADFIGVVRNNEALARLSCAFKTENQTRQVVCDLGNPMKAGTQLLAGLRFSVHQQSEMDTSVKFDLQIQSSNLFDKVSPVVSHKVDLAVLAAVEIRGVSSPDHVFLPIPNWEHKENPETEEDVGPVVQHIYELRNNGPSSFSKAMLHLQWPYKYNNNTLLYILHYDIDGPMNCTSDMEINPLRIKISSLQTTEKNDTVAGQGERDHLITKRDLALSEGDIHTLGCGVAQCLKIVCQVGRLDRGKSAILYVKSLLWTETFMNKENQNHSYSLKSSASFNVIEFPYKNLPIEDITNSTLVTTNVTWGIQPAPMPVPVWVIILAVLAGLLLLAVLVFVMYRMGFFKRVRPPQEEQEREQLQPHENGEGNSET
T1 sequence (P17948 27-1338): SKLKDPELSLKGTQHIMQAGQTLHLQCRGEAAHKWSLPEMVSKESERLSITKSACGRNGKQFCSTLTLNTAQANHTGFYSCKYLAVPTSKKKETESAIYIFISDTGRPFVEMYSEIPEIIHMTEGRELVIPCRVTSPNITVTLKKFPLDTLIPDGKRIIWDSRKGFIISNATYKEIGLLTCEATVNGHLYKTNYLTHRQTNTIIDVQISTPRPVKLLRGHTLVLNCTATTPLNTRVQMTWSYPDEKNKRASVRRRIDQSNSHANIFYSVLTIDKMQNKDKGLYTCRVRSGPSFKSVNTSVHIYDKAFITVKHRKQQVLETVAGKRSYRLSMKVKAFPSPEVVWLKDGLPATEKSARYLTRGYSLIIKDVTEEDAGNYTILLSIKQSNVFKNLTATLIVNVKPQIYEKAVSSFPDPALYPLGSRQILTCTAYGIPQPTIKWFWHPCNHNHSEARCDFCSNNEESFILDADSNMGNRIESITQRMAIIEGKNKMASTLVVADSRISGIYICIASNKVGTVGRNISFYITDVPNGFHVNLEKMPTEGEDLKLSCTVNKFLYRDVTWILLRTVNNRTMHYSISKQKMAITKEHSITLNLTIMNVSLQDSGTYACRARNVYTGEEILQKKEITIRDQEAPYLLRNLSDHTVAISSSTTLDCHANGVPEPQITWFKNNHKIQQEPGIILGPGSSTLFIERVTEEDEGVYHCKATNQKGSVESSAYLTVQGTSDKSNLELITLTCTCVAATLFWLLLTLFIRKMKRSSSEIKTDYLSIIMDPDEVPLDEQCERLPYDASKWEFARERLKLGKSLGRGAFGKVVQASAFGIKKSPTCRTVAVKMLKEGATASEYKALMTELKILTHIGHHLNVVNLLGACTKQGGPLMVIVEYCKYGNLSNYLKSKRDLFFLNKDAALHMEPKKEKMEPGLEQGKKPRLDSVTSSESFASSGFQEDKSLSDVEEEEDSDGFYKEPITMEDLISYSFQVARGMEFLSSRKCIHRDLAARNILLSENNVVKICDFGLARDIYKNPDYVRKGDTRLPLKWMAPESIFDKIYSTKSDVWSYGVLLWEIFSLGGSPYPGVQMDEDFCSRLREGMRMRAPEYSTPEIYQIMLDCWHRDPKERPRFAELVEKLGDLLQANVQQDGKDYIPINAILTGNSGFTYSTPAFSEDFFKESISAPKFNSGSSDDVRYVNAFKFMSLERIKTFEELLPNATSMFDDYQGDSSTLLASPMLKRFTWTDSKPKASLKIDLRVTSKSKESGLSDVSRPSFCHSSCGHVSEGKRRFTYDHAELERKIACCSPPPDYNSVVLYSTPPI
T2 sequence (Q9QWJ9 with tags, fused parts or gaps limits assumed): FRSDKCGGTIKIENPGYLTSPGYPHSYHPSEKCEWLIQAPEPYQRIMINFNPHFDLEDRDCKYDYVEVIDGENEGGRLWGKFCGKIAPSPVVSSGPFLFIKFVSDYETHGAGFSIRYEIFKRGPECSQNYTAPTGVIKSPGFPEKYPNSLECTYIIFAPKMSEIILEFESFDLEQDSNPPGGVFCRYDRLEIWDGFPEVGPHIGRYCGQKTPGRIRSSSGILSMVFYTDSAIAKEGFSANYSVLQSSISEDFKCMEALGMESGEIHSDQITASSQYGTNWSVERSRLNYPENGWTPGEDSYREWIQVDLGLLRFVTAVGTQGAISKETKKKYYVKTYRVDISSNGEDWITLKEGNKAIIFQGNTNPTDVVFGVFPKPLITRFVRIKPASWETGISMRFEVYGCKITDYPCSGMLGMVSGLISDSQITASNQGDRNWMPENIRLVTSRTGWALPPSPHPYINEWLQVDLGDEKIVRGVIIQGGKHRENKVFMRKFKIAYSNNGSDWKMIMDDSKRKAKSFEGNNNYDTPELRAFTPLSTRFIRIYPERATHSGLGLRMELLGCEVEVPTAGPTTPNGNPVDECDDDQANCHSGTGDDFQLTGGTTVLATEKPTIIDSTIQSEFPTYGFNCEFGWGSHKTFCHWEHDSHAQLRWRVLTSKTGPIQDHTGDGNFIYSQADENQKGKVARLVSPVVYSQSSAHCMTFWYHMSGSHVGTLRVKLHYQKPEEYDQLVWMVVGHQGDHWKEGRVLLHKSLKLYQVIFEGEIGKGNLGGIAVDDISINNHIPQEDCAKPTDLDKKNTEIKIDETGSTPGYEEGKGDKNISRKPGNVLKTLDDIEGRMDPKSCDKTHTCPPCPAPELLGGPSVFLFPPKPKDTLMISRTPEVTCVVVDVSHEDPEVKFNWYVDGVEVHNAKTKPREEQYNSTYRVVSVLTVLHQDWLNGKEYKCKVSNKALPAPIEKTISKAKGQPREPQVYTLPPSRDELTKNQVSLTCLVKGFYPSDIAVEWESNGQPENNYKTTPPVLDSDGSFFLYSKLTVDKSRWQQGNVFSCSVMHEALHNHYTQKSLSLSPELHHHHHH
Experimental for RT4 tumor cells: A subconfluent monolayer of RT4 tumor cells was incubated with 1×10^8 T.U. of VHALES (SEQ ID NO:25) phage per well in presence of increasing amounts of VHALES (SEQ ID NO:25) and control peptide. […] Bound phage were detected after intensive washing by infection with log phase K91 bacteria and plating of serial dilutions.
All cells were grown to subconfluency in 48 well plates and free binding sites were blocked with 800 μl 30% FCS/DMEM (blocking medium) for 1 hour at 37° C. The blocking solution was then replaced by 200 μl 10% FCS/DMEM (washing medium) containing 1×10^8 cfu of each phage per well. After incubation for 2 hours at 4° C. to prevent unspecific endocytosis, unbound phage were removed by washing 7 times with 500 μl washing medium. For competition experiments increasing concentrations of the corresponding peptide or a control peptide (CARAC, SEQ ID NO:5) were added during the incubation. Bound phage were determined by infection with 500 μl log phase K91 culture and plating of serial dilutions.

With `O=c1[nH]cc(F)c(=O)[nH]1` [CARAC, reference compound], in the assay with RT4 tumor cells, the “effect of peptide on VHALES phage binding to RT4 tumor cells” value is “unchanged and not”. Further, in the assay with KS1767 cells, the “effect of soluble peptide on RGD-4C phage binding to KS1767 cells” value (from here on “effect of soluble peptide”) was “no effect”. Take CDCRGDCFC [RGD-4C peptide]: the “effect of soluble peptide” value in the assay with KS1767 cells is reported as “completely inhibited”. In the assay with KS1767 cells (synthetic peptide in solution), the “inhibition of RGD-4C phage binding to KS1767 cells” value was 99.99%. For CPQPRPLC, the “efficiency in blocking phage binding to VEGF-R1 relative to NRP-1” value with human VEGFR-1 (clone 19 phage, VEGF-R1 versus NRP-1) was “approximately 100 fold”. Further, the “blocking of clone 19 phage binding to VEGF-R1 by competitor” value with human VEGFR-1 is “blocked”. The “blocking of clone 19 phage binding to NRP-1 by competitor” value with rat NRP-1 is “blocked”. Consider CRIRMSAGC, for which the “change of phage binding after GAG-removal” value with porcine bladder mucosa is “unchanged”. With GRGESP, the “effect of soluble peptide” value with KS1767 cells was “no effect”. In the case of “PDGF-BB: PDGF-BB obtained commercially (R&D Systems) [reference compound]”, the “blocking of clone 19 phage binding to VEGF-R1 by competitor” value with human VEGFR-1 is recorded as “not”. Besides, the “blocking of clone 19 phage binding to NRP-1 by competitor” value with rat NRP-1 was “not”. On to RGD-4C phage (peptide), for which, in assay [1], the enrichment in relation to Fd phage was in the range of 500 to 1000 fold and the ratio of RGD4C to Fd phage recovered (enrichment) was 100 to 500 fold. In the case of VHALES [VHALES peptide], the “effect of peptide on VHALES phage binding to RT4 tumor cells” value in the assay with RT4 tumor cells was “reduced”; with RT4 tumor cells (listed as VHALE), “inhibited”.

B1: synthetic RGD-4C peptide, containing the targeting sequence … (SEQ ID NO:9) (peptide)
peptide: CDCRGDCFC
modifications: disulfide (positions not given here); not fully specified; also: cyclized, bonds not given here
Molecule B1 displayed a percent inhibition of RGD-4C phage binding in assay [2] of 100%.

B2: synthetic cognate peptide CPQPRPLC (SEQ ID NO:6) (peptide)
peptide: CPQPRPLC
modifications: disulfide 1-8 (inferred)
B2: in the assay with recombinant rat NRP-1/Fc, the binding result is on record as “binds”. In addition, in [3], the “fold efficiency in blocking phage binding, VEGF-R1 against NRP-1” value is approximately 100 fold.
